One substance from PMC7072561 can be followed below.

For this data set the following is noted: ubiquitination at K63.

ubiquitin (HA-tagged): ubiquitin K63R: the other result was “decreases”.
